Tests used:
GUCY2C R792S mutant = biological target: T1, GUCY2C R792S mutant (Homo sapiens, UniProt P25092, R792S); experiment: Th Ser40 phosphorylation in HEK cells co-transfected with Th and GUCY2C R792S gain-of-function mutant versus wt; assay type: cell-based; settings: HEK co-transfected with Th and wt or R792S GUCY2C, guanylin treatment
T1 construct: expressed in transfected cells; host or cells: HEK cells, co-transfected with Th
Protocol: (§1) FIG. 5. […] (A) HEK cultures were treated with guanylin, in the presence or absence of IBMX. […] Unpaired Student's t-test (p-values: ****<0.0001, **<0.01, *<0.05). (B) HEK cells were co-transfected with Th and either the wt GUCY2C or a gain-of-function mutant (R792S). Ser40 phosphorylation was studied following guanylin treatment (G). […] Unpaired Student's t-test (p-values: ***<0.001, **<0.01).
HEK cells were transfected using the calcium-phosphate method. 12-well plates were refreshed with 500 μL of growth medium before transfection. […] The plasmid mixture was taken into a final concentration of 250 mM CaCl2 in a total volume of 110 μL. A complementary tube was filled with 110 μL of HEPES-buffered saline 2X (HEBS 2X: 1.5 mM Na2HPO4, 50 mM HEPES pH 7.05, 280 mM NaCl). The tube with CaCl2 was pipetted drop-wise into the HEBS and mixed gently. After 60 seconds of incubation, 55 µL of the final mixture was added to each well. […]
Up to 35 μL of sample was loaded in each slot and run in the presence of tris-glycine buffer and 0.1% SDS. […] After additional washings during 1 hour, blots were exposed to an enhanced chemiluminescence solution and the signal was detected using an Odyssey imager (LI-COR). […] For graph quantifications, ‘Fold Change’ represents the ratio P-Ser40/Total Th. Statistical comparisons between pair of groups correspond to unpaired Student's t-tests, as calculated with GraphPad Prism. […]

GUCY2C = GUCY2C (Homo sapiens, UniProt P25092); experiment: Th Ser40 phosphorylation in HEK cells co-transfected with Th and GUCY2C (western blot); assay type: cell-based; parameters: expressed in transfected cells; host or cells: HEK cells (ATCC), calcium-phosphate transfection, co-transfected with mouse Th; settings: guanylin 10 μM, uroguanylin 1 μM, IBMX 100 μM, 1 hour
Protocol: FIG. 4. GUCY2C activation increases Ser40 phosphorylation. Immunocytochemistry images (A) and western blotting analysis (B) of HEK cultures transfected with Th or Th+GUCY2C. (C) Co-transfected HEK cells were treated with guanylin (G) or uroguanylin (UroG) and changes in Ser40 phosphorylation were studied. The graph represents the statistical analysis (n=3 for Control, n=6 for Guanylin, n=9 for Uroguanylin; Mean±SEM). Unpaired Student's t-test (p-value: **<0.01).
as §1
HEK cells were maintained in 100-mm Petri dishes and grown in DMEM medium supplemented with L-glutamine, penicillin-streptomycin (Pen&Strep) and 10% heat-inactivated fetal bovine serum (HIFBS). Growing conditions were 37° C. and 5% CO2. For every-other-day passages, HEK cultures were split at a 1:3 dilution. From Friday to Monday, the split proportion was doubled for all cell lines. For passaging, cultures were rinsed with PBS and incubated with 1 mL of trypsin during 5 minutes. Cells were resuspended in growth medium and finally split to the proper dilution. The experiments were performed in 12-well plates. For immunocytochemistry analysis, sterile 18-mm coverslips were added prior to the plating. 500 !μL of cell resuspension was seeded in each well. If experiments were to be performed 48 hours after the plate preparation, 1:5 was the seeding ratio for HEK cells. When the experiments took place 96 hours post-plating, 1:7 was the working dilution for HEK cells. Unless otherwise stated, HEK cultures were processed 96 hours post-plating.
HEK cells were transfected using the calcium-phosphate method. 12-well plates were refreshed with 500 μL of growth medium before transfection. […]

T1 sequence (P25092 24-1073 R792S): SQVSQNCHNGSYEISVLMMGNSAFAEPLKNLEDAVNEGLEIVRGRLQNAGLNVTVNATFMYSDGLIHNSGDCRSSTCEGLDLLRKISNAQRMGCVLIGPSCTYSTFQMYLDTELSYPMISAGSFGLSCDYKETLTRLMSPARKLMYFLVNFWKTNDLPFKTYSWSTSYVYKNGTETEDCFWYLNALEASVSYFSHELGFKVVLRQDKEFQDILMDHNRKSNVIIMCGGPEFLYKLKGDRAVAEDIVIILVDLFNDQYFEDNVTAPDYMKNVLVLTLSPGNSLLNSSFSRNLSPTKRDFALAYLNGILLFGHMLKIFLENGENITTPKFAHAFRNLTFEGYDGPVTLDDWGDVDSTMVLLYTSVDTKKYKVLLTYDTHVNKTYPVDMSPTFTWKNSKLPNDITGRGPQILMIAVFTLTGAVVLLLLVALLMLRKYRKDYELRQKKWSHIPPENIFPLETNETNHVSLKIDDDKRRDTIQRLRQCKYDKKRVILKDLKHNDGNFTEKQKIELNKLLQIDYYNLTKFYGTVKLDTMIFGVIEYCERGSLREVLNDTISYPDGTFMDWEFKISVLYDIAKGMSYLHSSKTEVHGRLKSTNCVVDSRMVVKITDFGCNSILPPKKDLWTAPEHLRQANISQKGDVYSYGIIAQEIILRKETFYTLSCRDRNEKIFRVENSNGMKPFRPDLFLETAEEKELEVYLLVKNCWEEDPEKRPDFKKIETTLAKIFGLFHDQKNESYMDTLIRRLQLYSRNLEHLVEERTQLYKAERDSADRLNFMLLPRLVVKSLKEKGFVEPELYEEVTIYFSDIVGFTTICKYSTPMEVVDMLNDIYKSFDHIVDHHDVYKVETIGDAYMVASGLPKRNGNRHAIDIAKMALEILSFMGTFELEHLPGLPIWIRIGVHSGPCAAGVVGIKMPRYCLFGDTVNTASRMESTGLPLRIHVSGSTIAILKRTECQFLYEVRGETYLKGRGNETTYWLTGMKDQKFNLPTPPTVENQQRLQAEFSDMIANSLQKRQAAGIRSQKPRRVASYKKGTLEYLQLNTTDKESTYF
Chain of GUCY2C (P25092 24-1073): as the sequence (P25092 24-1073 R792S) above, with S769R counted along it

## guanylin: natural agonistic ligand of GUCY2C, 15 amino acid polypeptide; commercially available rat/mouse guanylin (Chemcruz) (PNTCEICAYAACTGC) [reference compound]
GUCY2C R792S mutant
  boost in Ser40 phosphorylation with R792S mutant compared to the wt receptor: 1.5 fold
GUCY2C
  P-Ser40 levels / Ser40 phosphorylation (in words): increase P-Ser40 levels
